Among the data in PMC13185593 are Kd values, retold here.

The test system of the series is HuR. Description: SPR. The note with it: SPR: 25 mM Tris pH 7.5, 100 mM KCl, 7 mM b-mercaptoethanol, 10% glycerol, 25 C, UV crosslinking: 5 mM HEPES pH 7.6, 25 mM KCl, 2 mM MgCl2, 3.8% glycerol.

The Kd is a measure of binding affinity in units of concentration. Read a low Kd as a tighter complex. With SARS-CoV-2 5'-UTR WT, biotin (SPR), the equilibrium dissociation constant (Kd) was determined as 32.5 nM.
